Where no end group is shown, it is not given here.
Columns and labels:
[1] = Fluorescence imaging (IVIS) of subcutaneous dose absorption; assay type: in vivo, mouse
Protocol: Preparation of Animal Experiment FUD and 10-40 kDa PEG-FUD Drug Dose: A 12.5 mg FUD equivalents per kg of mouse weight drug dose spiked with 1.5% Cy5 labeled drug was prepared by mixing an appropriate amount of unlabeled and labeled drug in a conical vial. The drug was then dialyzed ON into phosphate buffered saline (pH 7.4) using a 3000 MWCO dialysis membrane. The total volume of the dose was reduced to the appropriate value using a 3000 MWCO Amicon® Ultra-15 centrifugal unit. The final concentration of the drug was determined using a UV-vis spectrophotometer and the 646 nm extinction coefficient of Cy5, ε=271000 L·mol^−1·cm^−1.
10 week old mice weighing 20-23 g were placed under 2% isoflurane anesthesia and positioned on their abdomen inside of an IVIS Spectrum In Vivo Imaging System. A 100 uL dose containing 0.27 mg (12.5 mg/kg) of FUD or FUD equivalents of 10-40 kDa PEG-FUD that was spiked with 1.5% Cy5 labeled drug was delivered subcutaneously between the shoulder blades of the animals (n=3 per treatment group). The animals were imaged before the injection, immediately following injection, and at time points of 30 minutes and 1, 3, 6, 12, 24, 36, and 48 hours. The animals were sacrificed following the last time point and their organs were harvested for ex vivo fluorescence imaging and drug extraction and quantification. LivingImage® (PerkinElmer) software was used to analyze the views of each animal group. The autodraw feature of the software set to a 5% threshold was used to create unique regions of interest (ROI) on each animal at t=30 mins views that were consistently applied to each subsequent time point views to quantify drug levels present at the site of injection. Baseline autoflorescence values calculated from ROIs applied to “before injection” views were subtracted from the values of each time point's animals. The ROI values obtained from the t=30 mins views were used to calculate % dose remaining for each subsequent time point.

[2] = test system: bleomycin-induced pulmonary fibrosis; assay: Bleomycin-induced pulmonary fibrosis model: hydroxyproline and survival; assay type: in vivo, mouse
Protocol: All efforts were made to minimize suffering. The Bleomycin model is a rodent model representing a human equivalent of pulmonary fibrosis with the fibrotic response peaking between 14 and 21 days post-bleomycin installation. To initiate bleomycin injury, mice were anesthetized with ketamine (100 mg/kg) and xylazine (15 mg/kg) prior to delivering a single intratracheal dose of bleomycin (1 U/kg, Teva Pharmaceutical Industries, Ltd) reconstituted in 0.9% Normal Saline (NS) or NS alone as control.
End-points for analysis: On day 14, mice were euthanized and lungs homogenized for hydroxyproline and western blot. Additionally, mouse survival by day 14 was compared between bleomycin PEG-FUD- and bleomycin PEG-mFUD-treated groups using Log-Rank test.
Hydroxyproline assay: Hydroxyproline assay was performed by Dounce homogenizing right lungs in deionized water, hydrolyzing in 6 N HCl for three hours at 120° C., drying for 45 min at 65° C., incubating in citrate-acetate buffer and chloramine-T for 20 min at room temperature, followed by Ehrlich's reagent for 15 min at 65° C. Subsequently, the samples were cooled to room temperature and the absorbance measured at 550 nm. […] Hydroxyproline results were analyzed using Students t-test with Bonferroni post-hoc test, comparing bleomycin- and PEG-FUD-treated mice to those treated with bleomycin and PEG-mFUD.

Substance	% dose remaining at the site of injection after 24 hours ([1]; s.c. 12.5 mg/kg FUD equivalents, 24 hours) [%]	apparent half-life at the site of injection ([1]; s.c. 12.5 mg/kg, spiked with 1.5% Cy5 labeled drug, nude mice) [min]	survival to the end of the 14-day trial ([2]; bleomycin-treated mice, s.c. 12.5 mg/kg/day day 3-13) [%]	collagen accumulation (hydroxyproline assay, right lung) ([2]; day 14 post-bleomycin, s.c. 12.5 mg/kg/day day 3-13, vs PEG-mFUD)
FUD: 49 amino acid FUD peptide, SEQ ID NO: 1, recombinantly expressed, His-tag removed; inhibitor of fibronectin fibrillogenesis (KDQSPLAGESGETEYITEVYGNQQNPVDIDKKLPNETGFSGNMVETEDT; human) [reference compound]	0.3	35		
PEG-FUD: PEGylated FUD prepared as in Example 1, PEG size not stated; approximately 27 kDa by mass spectrometry, likely the 20 kDa conjugate (KDQSPLAGESGETEYITEVYGNQQNPVDIDKKLPNETGFSGNMVETEDT; not fully specified (N-terminus); also: PEG size not given here)			100	significant reduction of collagen accumulation
